Data published in the supplement of paper PMC12042874.
± gives the uncertainty stated by the source.

Experiment: amyloid nucleation score (Sup35N fusion, yeast selection) (log enrichment); library NNK3; higher = more nucleation; inactive = no reads after selection
Summary of the method: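 Sup35N fusions to peptides of 20 random codons were expressed in psi-negative yeast, induced 24 hours with 100 μM copper sulfate, and grown 7 days at 30°C on medium lacking adenine and uracil. Input and output plasmid inserts were sequenced by Illumina. The nucleation score is the DiMSum log enrichment of output over input reads, centred on the mode score of non-aggregating sequences. Sequences with under 100 input reads were excluded.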

Row | Substance | amyloid nucleation score
1 | SAPNYVRSSLFCN | inactive
2 | SASEKTDSNVVEFCVGRCI | inactive
3 | SASLLN | inactive
4 | SAVVMRSQADSFDYLN | inactive
5 | SAYAGYKRLGASEVILLSPY | inactive
6 | SAYTNANGLNVSLFLMHHAC | inactive
7 | SAYVLDGYMEISQILVIWSL | inactive
8 | SCAAPMIILTDKSCGRRGLG | inactive
9 | SCEFYDSVLWSYFKMAMFAL | -0.698 ± 0.8
10 | SCFRFKTQLTIGLVEEISCA | inactive
11 | SCGHFIGCWMGTQVRIYGKQ | inactive
12 | SCIIWKSWQV | 1.14 ± 0.095
13 | SCKELLPFWARELLRFNRYC | inactive
14 | SCKGNVFVSSGWEFGAYFTG | 0.751 ± 0.23
15 | SCKLSHFEVTMECLEYFWMM | inactive
16 | SCMSYDLRQL | inactive
17 | SCPIRDSGTGSYL | inactive
18 | SCQKIALIWIRLTTDMRRRC | inactive
19 | SCRLWHKRANRVGF | inactive
20 | SCRVTPVLR | inactive
21 | SCTVKSAGGFVSHRFNGSMG | inactive
22 | SCVGNLENTIYNMVVRNCCY | inactive
23 | SCWKTHSAKNSNGS | inactive

Row | Substance | amyloid nucleation score
24 | SCYISNFLSGCKLFMNRFL | inactive
25 | SDLGHWHIFRYLAAIASRRK | inactive
26 | SDLYTIGVVPTLTFINAPCI | inactive
27 | SDSSYSYTVF | inactive
28 | SDTSSCCYTCVYISYVDHFF | 2.41 ± 0.052
29 | SDVIGLLFGEYNISVVLRGR | inactive
30 | SDWIRNG | inactive
31 | SEALCWIVTSVCRLRVFLV | inactive
32 | SECYKWRIFCNILNR | 2.36 ± 0.058
33 | SELRWYL | inactive
34 | SERKMVSKRTLKGYFRRQVI | inactive
35 | SESCFDMMPCLVGLKSERGQ | inactive
36 | SESMCVIVSRIIWCGKVSNV | inactive
37 | SESYPTRLSGRKILTRALT | inactive
38 | SEVTSRNHTGYSRSRLLGMY | inactive
39 | SEVVIWFAWYMSLLNPGLYA | inactive
40 | SEYLVMLTGWVTTHLQMLWV | inactive
41 | SFAWVS | inactive
42 | SFDCRRSSRL | inactive
43 | SFDILTAVVT | inactive
44 | SFFRMSFC | 2.91 ± 0.06
45 | SFGAKCARGQDSTASVFNNG | -0.33 ± 1.1
46 | SFIRASKVCFDSHGCWFGLG | inactive

Row | Substance | amyloid nucleation score
47 | SFLTDMPKTKVYCAMNLPMI | -0.121 ± 0.66
48 | SFMKQIFSYARLVRISKSVG | inactive
49 | SFMRRCNVCIRLYSLAFDMT | 0.542 ± 0.23
50 | SFNFSRHLVLF | inactive
51 | SFNITAWMMFMNVIQGYSI | 2.38 ± 0.059
52 | SFNLNCDDQSRNYRADVSDS | 1.16 ± 0.099
53 | SFNVSRWPRKWISLNCLKIS | inactive
54 | SFPKYRSNEDFPMDIRCNSS | inactive
55 | SFRFLV | inactive
56 | SFSPFVTFNKWSRWGLRNIG | inactive
57 | SFSRCLNSLEVRNKNSWWVG | -0.181 ± 0.75
58 | SFSVPVELSEP | inactive
59 | SFTLPSIGWWYALFRSYWID | inactive
60 | SFYPLCRQAVTDMFNKHCFP | inactive
61 | SFYSNFRESRDLSSYTLNIS | inactive
62 | SFYVLIVQRCELMSVVVMES | inactive
63 | SGFHERCFINQPVFST | inactive
64 | SGFSYRFRDSMGLDKYRCAN | inactive
65 | SGFYNWI | inactive
66 | SGHVHNSMKPGRSRTCTMLR | inactive
67 | SGIIWQYNARLE | inactive
68 | SGIMSHVGGTELLNSLHLMF | inactive
69 | SGITIEF | inactive

Row | Substance | amyloid nucleation score
70 | SGKSLDDRFSK | inactive
71 | SGLRSTFDNTYTLYY | inactive
72 | SGLVCVT | inactive
73 | SGMTGCTFRYGSRIQF | inactive
74 | SGNTNDSSMHHQNLFFSA | inactive
75 | SGSLHACLALWTLTTYCVST | inactive
76 | SGSSMTS | inactive
77 | SGSWVNDSESAEDLT | inactive
78 | SGVYLSGSSLVCNTFFGTNQ | 1.78 ± 0.088
79 | SGWLA | inactive
80 | SHFGLDAICFIKLSTDGCTG | inactive
81 | SHFTEFPYLGLHTYAVVE | inactive
82 | SHISWSQYRM | 1.58 ± 0.11
83 | SHKFRMITIGPSSMIGALTC | inactive
84 | SHRKMFQGVKQVISSPETHS | inactive
85 | SHSLSVGGFYSPDFRNYTCT | 1.98 ± 0.082
86 | SHVLWCNMVNEFVHTLSRCG | 1.34 ± 0.082
87 | SHVQWPDAFFYRTSFGQLLS | inactive
88 | SHVSRVNEVSVISMSDINDH | inactive
89 | SHYLLMFLVSDTLV | inactive
90 | SHYRIMT | inactive
91 | SIAIRVRAIIGKSRGKCPNG | 1.81 ± 0.092
92 | SICCKVRTSTYVRLCMLVLP | inactive

Row | Substance | amyloid nucleation score
93 | SICGKSSCMCVTNVSPLDSQ | 0.304 ± 0.21
94 | SICIRFF | inactive
95 | SICMNNLCVSWTMPYT | 1.5 ± 0.11
96 | SIDVLKTNINDIRFVIKIRR | inactive
97 | SIDYADVK | inactive
98 | SIFKVISERQSV | inactive
99 | SIICCAFLVVQFKER | 2.62 ± 0.084
100 | SIIGKNYKFRATSINKGISM | inactive
101 | SILMTVYDGYHKRSKNIAQC | inactive
102 | SILTMLPKFGFVESLLECEG | inactive
103 | SINCTYPVRND | inactive
104 | SIQCSK | inactive
105 | SIVDSVQQVSVRWAMYT | -0.433 ± 1.8
106 | SIYLCLYREVSTVWGKRSN | inactive
107 | SKECILVLAFDGCSGSSRWY | inactive
108 | SKLLIPHNNGRYSFFWSIGM | 2.04 ± 0.078
109 | SKRNPRMRSQLFIGDYFAYP | -1.13 ± 1.9
110 | SKSFVYPVNVCRRWLAVLGN | inactive
111 | SKSIMTWWEVLDGGSNLKSV | inactive
112 | SKSNIRYSNTNGH | inactive
113 | SKVKDDALPTTILCGTYNLN | inactive
114 | SKVKFILTRVPLFLLRIAES | inactive
115 | SKVRMVGVSKKCGLTVISVQ | inactive

Row | Substance | amyloid nucleation score
116 | SKWAFPYPA | inactive
117 | SKYPRLSCHRIRNVRLGWTL | 1.34 ± 0.085
118 | SLAMTFYSGIGFYCFSCFFN | 2.36 ± 0.059
119 | SLCLASGFKRCNIV | -0.072 ± 0.8
120 | SLDFIHRNFVARQCIHNKGH | inactive
121 | SLDMYPVVKKCYTYFFFQYF | 1.16 ± 0.11
122 | SLFCRWLVVYPSMLRVKRVR | inactive
123 | SLFINT | inactive
124 | SLFKEWAWA | inactive
125 | SLFVLCFH | 0.717 ± 0.13
126 | SLKARDVRSWSLSLLVQLAF | inactive
127 | SLKSNTVCDNL | inactive
128 | SLLGISVFKPERANTGQRLV | 0.721 ± 0.23
129 | SLLLLSGFEVSSKR | inactive
130 | SLLSRFIEEGASCRCTRDGS | inactive
131 | SLMSGWN | inactive
132 | SLNMSN | inactive
133 | SLNNCGLLWYPSTTPPESLG | inactive
134 | SLNRWLSKYYLHTA | inactive
135 | SLRPGLVLVIERNEFKS | inactive
136 | SLSFSVLLHWIFCYFWILY | inactive
137 | SLSNSVWINFARNGLSSLCQ | inactive
138 | SLSPDPFEFLLLSLLLRSAV | inactive

Row | Substance | amyloid nucleation score
139 | SLVGGICVRHREDVDTQKFK | inactive
140 | SLVPDNAANAMRPTWINLWW | 1.84 ± 0.078
141 | SLVTFMLLMIKGMSGYFRTV | inactive
142 | SLWMFCYSDSYRCKDNFLRN | inactive
143 | SLYGKDYTKTVFSDAVFVCF | inactive
144 | SMCKDFSAACESICGIPVGY | inactive
145 | SMGLR | inactive
146 | SMGRYDLLPTPDVVSLSYNM | inactive
147 | SMKSGSATCGIN | inactive
148 | SMNFLICMIWSIVS | 1.02 ± 0.21
149 | SMQRNSQFLLAQYTDPGGN | inactive
150 | SMVGVFQKVFKTITTTYADV | inactive
151 | SMWQQVYSLSTLF | inactive
152 | SNEGE | inactive
153 | SNFVIVSWIVTNVLRM | 0.869 ± 0.094
154 | SNGLATLSLSWCNCIKGGSL | 2.9 ± 0.052
155 | SNHVWFDLFGEYDASCFCTV | inactive
156 | SNIGHM | inactive
157 | SNLDFMMGINSFRRVKAEPG | -0.251 ± 0.57
158 | SNLLS | inactive
159 | SNLNWPWKYPNMWFLLS | inactive
160 | SNLSNPLIVMKFYQAAMGVH | inactive
